Measured values: patent US20210253725A1 (BIONTECH, published 2021)

T1: CD27 protein (His-tagged, Sino Biological Inc. 10039-H08B1) (human, UniProt P26842 20-192)
T1 construct: bought; coated onto ELISA plates; also called human CD27; recombinant protein; not shown: His tag
T1 sequence (looked up): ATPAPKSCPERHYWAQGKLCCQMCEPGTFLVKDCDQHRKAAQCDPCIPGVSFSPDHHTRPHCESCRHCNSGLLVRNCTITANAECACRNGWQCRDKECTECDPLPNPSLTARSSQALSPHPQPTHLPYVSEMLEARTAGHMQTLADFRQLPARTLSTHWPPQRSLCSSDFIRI

T2: CD27 expressed on the cell surface (HT1080_CD27 cells) (human, UniProt P26842 20-260)
T2 construct: whole, on cells; also called K562_CD27
T2 sequence (looked up): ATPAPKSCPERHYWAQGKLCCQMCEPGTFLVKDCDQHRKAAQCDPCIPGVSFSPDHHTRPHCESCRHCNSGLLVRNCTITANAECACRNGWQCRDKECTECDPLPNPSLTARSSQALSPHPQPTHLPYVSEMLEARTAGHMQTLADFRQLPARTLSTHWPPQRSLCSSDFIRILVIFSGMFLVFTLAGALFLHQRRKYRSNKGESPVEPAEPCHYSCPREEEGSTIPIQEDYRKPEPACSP


Legend:
[1] = target: T1, CD27 protein (His-tagged, Sino …); assay: ELISA on coated His-tagged CD27
[2] = target: T2, CD27 expressed on the cell surface …; assay: cellular binding assay, HT1080_CD27 cells
[3] = target: T2, CD27 expressed on the cell surface …; assay: cell-based or functional assay
Further: test concentration or dose not given here.

| ELISA [abs. corr.] [1] | Cellular binding assay [RFU] [2] | IL-8, cross-linked by F(ab')2 fragment [abs. corr.] [3] | IL-8 [abs. corr.] [3] | Binder |
| --- | --- | --- | --- | --- |
| 3.37 abs. corr. | 348 RFU | 1.59 abs. corr. | 0.418 abs. corr. | P018.S.02.A.C06 (antibody, V domains shown, V regions on human Ig constant parts; also called AB27_32) VH: QEQLEESGGGLVQPEGSLTLTCKASGIDFSSNYYISWVRQAPGKGLEWIGCIYTGSDDAAYYASWAKGRFTISKTSSTTVTLQMTSLTAADTATYFCAREILYPTNTDSFDLWGPGTLVTVSS VL: AQVLTQTPSSVSEPVGGIVTINCQASESISSRLAWYQQKPGQPPKLLIYRAATLASGVPSRFKGSGSGTDFTLTISDLESADAATYYCQSYVGASSGGYFFGGGTEVVVK |
| 3.36 abs. corr. | 382 RFU | 2.12 abs. corr. | 0.582 abs. corr. | P018.S.01.A.B04 (antibody, V domains shown, V regions on human Ig constant parts; also called AB27_5) VH: QEQLEESGGRLVTPGGTLTLTCTASGFSLSSYDMSWVRQAPGKGLEWIGYIWSDGNTDYASWAAGRFTASRASTTVDLKMTSLTTEDTATYFCARGYTGFFLWGPGTLVTVSS VL: DVVMTQTPSSVSAAVGGTVTIKCQASQSIGSSYLSWYQQKPGQPPKLLIYKTSTLASGVPSRFKGSGSGTEFTLTISDLESDDAATYYCQCTYYGGSWRVAFGGGTEVVVK |
| 3.5 abs. corr. | 376 RFU | 1.88 abs. corr. | 0.453 abs. corr. | P018.S.01.A.B05 (antibody, V domains shown, V regions on human Ig constant parts; also called AB27_6) VH: QEQLEESGGRLVTPGGTLTLTCTASGFSLSSYDMSWVRQAPGKGLEWIGYIWSDGNTDYATWAAGRFTASRASTTVDLKMTSLTTEDTATYFCARGYTGFFLWGPGTLVTVSS VL: DVVMTQTPSSVSAAVGGTVTIKCQASQSIGSSYLSWYQQKPGQPPKLLIYKTSTLASGVPSRFKGSGSGTEFTLTISDLESDDAATYYCQCTYYGSSWRVAFGGGTEVVVK |
| 3.4 abs. corr. | 341 RFU | 2.2 abs. corr. | 0.175 abs. corr. | P018.S.01.A.D04 (antibody, V domains shown, V regions on human Ig constant parts; also called AB27_12) VH: QEQLEESGGRLVTPGGTLTLTCTASGFSLSNYDMSWVRQAPGKGLEWIGYIWSDGNTDYASWAAGRFTASRASTTVDLKMTSLTTEDTATYFCARGYTGFFLWGPGTLVTVSS VL: DVVMTQTPSSVSTAVGDTVTIKCQASQSIGSSYLSWYQQKPGQPPKLLIYKTSTLASGVPSRFKGSGSGTEFTLTISDLESDDAATYYCQCTYYGGSWRVAFGGGTEVVVK |
| 3.67 abs. corr. | 363 RFU | 1.88 abs. corr. | 0.848 abs. corr. | P018.S.01.A.G02 (antibody, V domains shown, V regions on human Ig constant parts; also called AB27_21) VH: QEQLEESGGRLVTPGGTLTLTCTASGFSLSSYDMSWVRQAPGKGLEWIGYIWSDGNTDYATWAAGRFTASRASTTVDLKMTSLTTEDTATYFCARGYTGFFLWGPGTLVTVSS VL: DVVMTQTPSSVSAAVGGTVTIKCQASQSIGSSYLSWYQQKPGQPPKLLIYKTSTLASGVPSRFKGSGSGTEFTLTISDLESDDAATYYCQCTYYGGSWRVAFGGGTEVVVK |
| 3.47 abs. corr. | 336 RFU | 1.9 abs. corr. | 0.369 abs. corr. | P018.S.05.A.H02 (antibody, V domains shown, V regions on human Ig constant parts; also called AB27_94) VH: QEQLEESGGRLVTPGGTLTLTCTASGFSLNSYDMSWVRQAPGKGLEWIGYIWSDGNTDYASWAAGRFTASRASTTVDLKMTSLTTEDTATYFCARGYTGFFLWGPGTLVTVSS VL: DVVMTQTPSSVSAAVGGTVTIKCQASQSIGSSYLSWYQQKPGQPPKLLIYEASTLASGVPSRFKGSGSGTEFTLTISDLESDDAATYYCQCTYYGGSWRVAFGGGTEVVVK |
| 3.46 abs. corr. | 291 RFU | 1.98 abs. corr. | 0.579 abs. corr. | P018.S.04.A.H04 (antibody, V domains shown, V regions on human Ig constant parts; also called AB27_79) VH: QSVEESGGRLVTPGTPLTLTCTVSRFSLSTSTMTWVRQAPGKGLEWIGIINGGGSAYYANWAKGRFTISKTSTTVDLKITSPTTEDTATYFCARSYDSYDDIYGTSRLYAFDPWGPGTLVTVSS VL: AYDMTQTPASVEVAVGGTVTINCQASESIYSNLAWYQQKPGQPPKLLIYRASYLASGVSSRFKGSGSGTQFTLTISGVESADAATYYCQQGYSSSDVDNAFGGGTEVVVK |
| 3.36 abs. corr. | 317 RFU | 1.58 abs. corr. | 0.373 abs. corr. | P018.S.03.A.C02 (antibody, V domains shown, V regions on human Ig constant parts; also called AB27_44) VH: QSVEESGGRLVTPGTPLTLTCTVSRFSLSTSTMTWVRQAPGKGLEWIGIINGGGSAYYANWAKGRFTISKTSTTVDLKITSPTTEDTATYFCARSYDSYDDIYGTSRLYAFDPWGPGTLVTVSS VL: AYDMTQTPASVEVVVGGTVTISCQASESIYANLAWYQQKPGQPPKLLIYRASYLASGVSSRFKGSGSGTQFTLTISGVESADAATYYCQQGYSSSNVDNSFGGGTEVVVK |
